Where no end group is shown, it is not given here. The star is where a group is joined. FITC = O=C1OC2(c3ccc(O)cc3Oc3cc(O)ccc32)c2ccc(NC(=S)*)cc21; Ahx = NCCCCCC(=O)O
B1: Transportin-1 (TNPO1) with the acidic loop (residues 337–367) replaced by a GGSGGSG linker (natural protein)
chain: MEYEWKPDEQGLQQILQLLKESQSPDTTIQRTVQQKLEQLNQYPDFNNYLIFVLTKLKSEDEPTRSLSGLILKNNVKAHFQNFPNGVTDFIKSECLNNIGDSSPLIRATVGILITTIASKGELQNWPDLLPKLCSLLDSEDYNTCEGAFGALQKICEDSAEILDSDVLDRPLNIMIPKFLQFFKHSSPKIRSHAVACVNQFIISRTQALMLHIDSFIENLFALAGDEEPEVRKNVCRALVMLLEVRMDRLLPHMHNIVEYMLQRTQDQDENVALEACEFWLTLAEQPICKDVLVRHLPKLIPVLVNGMKYSDIDIILLKGDVEEDETIPDSEQDIRGGSGGSGDTISDWNLRKCSAAALDVLANVYRDELLPHILPLLKELLFHHEWVVKESGILVLGAIAEGCMQGMIPYLPELIPHLIQCLSDKKALVRSITCWTLSRYAHWVVSQPPDTYLKPLMTELLKRILDSNKRVQEAACSAFATLEEEACTELVPYLAYILDTLVFAFSKYQHKNLLILYDAIGTLADSVGHHLNKPEYIQMLMPPLIQKWNMLKDEDKDLFPLLECLSSVATALQSGFLPYCEPVYQRCVNLVQKTLAQAMLNNAQPDQYEAPDKDFMIVALDLLSGLAEGLGGNIEQLVARSNILTLMYQCMQDKMPEVRQSSFALLGDLTKACFQHVKPCIADFMPILGTNLNPEFISVCNNATWAIGEISIQMGIEMQPYIPMVLHQLVEIINRPNTPKTLLENTAITIGRLGYVCPQEVAPMLQQFIRPWCTSLRNIRDNEEKDSAFRGICTMISVNPSGVIQDFIFFCDAVASWINPKDDLRDMFCKILHGFKNQVGDENWRRFSDQFPLPLKERLAAFYGV
B2: FITC-labeled peptide corresponding to residues 699–729 of BAP1 (peptide)
peptide: {FITC-Ahx}-RRRQGVSIGRLHKQRKPDRRKRSRPYKAKRQ

Legend:
Assay in all cases: fluorescence polarisation
[1] = biological target: FITC-labeled peptide corresponding to residues 699–729 of BAP1 (human)
[2] = biological target: B2
[3] = biological target: Importin α5 (KPNA1), residues 66–512, without the IBB domain (UniProt P52294 66-512)
Sequence of Importin α5 (KPNA1), residues 66–512, without the IBB domain (P52294 66-512): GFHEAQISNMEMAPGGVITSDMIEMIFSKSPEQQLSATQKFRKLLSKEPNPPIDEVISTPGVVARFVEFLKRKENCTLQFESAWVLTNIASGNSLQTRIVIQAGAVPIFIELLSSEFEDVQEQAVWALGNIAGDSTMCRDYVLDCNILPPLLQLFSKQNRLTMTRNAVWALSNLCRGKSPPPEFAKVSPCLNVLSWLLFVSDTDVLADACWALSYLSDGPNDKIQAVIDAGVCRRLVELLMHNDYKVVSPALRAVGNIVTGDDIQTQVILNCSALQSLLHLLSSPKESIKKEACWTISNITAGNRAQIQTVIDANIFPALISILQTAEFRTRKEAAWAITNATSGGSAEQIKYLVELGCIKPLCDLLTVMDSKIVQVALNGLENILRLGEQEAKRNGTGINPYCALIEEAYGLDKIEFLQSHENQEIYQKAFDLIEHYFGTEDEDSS

In the case of “Importin α1 (KPNA2), residues 60–529, without the IBB domain (from UniProt P52292 60-529) (domain or fragment)”, the Kd [1] is reported as > 7200 nM.

B1 was tested, and the Kd [2] was 19.6 nM.

In the case of B2, the Kd [3] is reported as 670 nM.
